Biological target: myh9_human MYH9 (UniProt P35579)
Sequence (P35579 whole entry): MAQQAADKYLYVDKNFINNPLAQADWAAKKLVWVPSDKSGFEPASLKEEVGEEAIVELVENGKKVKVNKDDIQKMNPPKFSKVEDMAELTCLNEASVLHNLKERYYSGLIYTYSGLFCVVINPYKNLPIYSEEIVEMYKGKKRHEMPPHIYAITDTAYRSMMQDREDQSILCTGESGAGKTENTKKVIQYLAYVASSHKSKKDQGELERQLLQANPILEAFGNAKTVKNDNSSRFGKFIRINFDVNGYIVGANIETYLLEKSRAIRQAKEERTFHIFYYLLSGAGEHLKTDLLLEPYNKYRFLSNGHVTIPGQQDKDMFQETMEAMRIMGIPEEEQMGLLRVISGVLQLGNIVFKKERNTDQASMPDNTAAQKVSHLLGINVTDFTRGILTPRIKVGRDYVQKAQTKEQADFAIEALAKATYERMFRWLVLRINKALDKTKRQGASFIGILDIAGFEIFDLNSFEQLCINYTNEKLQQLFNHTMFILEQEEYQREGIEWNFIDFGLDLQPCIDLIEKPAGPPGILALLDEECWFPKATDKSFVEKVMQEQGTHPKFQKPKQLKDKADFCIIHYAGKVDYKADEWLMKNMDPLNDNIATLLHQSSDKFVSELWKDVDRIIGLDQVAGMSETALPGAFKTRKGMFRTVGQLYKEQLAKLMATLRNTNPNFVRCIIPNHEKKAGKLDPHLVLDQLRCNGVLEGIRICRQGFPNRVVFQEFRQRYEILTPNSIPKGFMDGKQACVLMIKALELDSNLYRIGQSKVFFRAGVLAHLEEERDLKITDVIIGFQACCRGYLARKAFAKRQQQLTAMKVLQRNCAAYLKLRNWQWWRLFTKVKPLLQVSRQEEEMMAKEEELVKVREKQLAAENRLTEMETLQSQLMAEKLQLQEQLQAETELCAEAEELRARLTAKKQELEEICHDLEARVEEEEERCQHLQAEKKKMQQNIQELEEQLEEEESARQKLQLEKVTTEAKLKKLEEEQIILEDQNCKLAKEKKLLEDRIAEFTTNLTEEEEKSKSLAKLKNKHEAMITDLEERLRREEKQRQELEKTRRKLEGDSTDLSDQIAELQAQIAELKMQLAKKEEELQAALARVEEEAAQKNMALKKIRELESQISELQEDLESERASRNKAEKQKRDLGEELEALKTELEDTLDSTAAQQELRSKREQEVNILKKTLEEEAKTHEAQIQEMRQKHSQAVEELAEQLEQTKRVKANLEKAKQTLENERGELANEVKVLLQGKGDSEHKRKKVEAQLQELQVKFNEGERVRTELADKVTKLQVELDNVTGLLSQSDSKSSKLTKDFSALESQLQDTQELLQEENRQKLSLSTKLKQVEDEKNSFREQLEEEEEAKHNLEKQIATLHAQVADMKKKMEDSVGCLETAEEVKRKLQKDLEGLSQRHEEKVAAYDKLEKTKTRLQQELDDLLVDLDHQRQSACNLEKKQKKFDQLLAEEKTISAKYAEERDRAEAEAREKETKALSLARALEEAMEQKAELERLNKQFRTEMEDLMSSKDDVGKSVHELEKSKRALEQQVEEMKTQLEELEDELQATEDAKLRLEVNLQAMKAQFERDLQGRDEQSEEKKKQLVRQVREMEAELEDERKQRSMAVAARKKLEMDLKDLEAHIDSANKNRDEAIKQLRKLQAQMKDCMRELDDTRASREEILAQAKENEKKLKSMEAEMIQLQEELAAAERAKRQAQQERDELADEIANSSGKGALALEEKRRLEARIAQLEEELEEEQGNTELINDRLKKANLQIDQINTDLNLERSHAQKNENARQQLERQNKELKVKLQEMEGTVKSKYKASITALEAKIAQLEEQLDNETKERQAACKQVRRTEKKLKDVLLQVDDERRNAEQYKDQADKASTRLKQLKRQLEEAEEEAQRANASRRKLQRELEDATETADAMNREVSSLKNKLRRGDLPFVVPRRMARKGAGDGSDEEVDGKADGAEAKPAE

Sequence of Protein S100-A4 (Homo sapiens), P26447 C81D (P26447 whole entry C81D): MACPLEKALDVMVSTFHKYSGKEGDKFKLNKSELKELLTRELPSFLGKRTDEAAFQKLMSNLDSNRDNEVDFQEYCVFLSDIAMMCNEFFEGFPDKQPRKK

Row | Substance | effect of a mutation on the interaction
1 | Protein S100-A4 (Homo sapiens), P26447 C81D | disrupting interaction strength
2 | Protein S100-A4 (Homo sapiens), P26447 V77D | disrupting interaction strength

— IntAct's records for PubMed 22483112
